1 molecule from patent publication US20250163137A1 can be followed below.

Assay [1] concerns the target human FDP (fibrin-fibrinogen degradation products) (human) (UniProt P02671). The experiment in a line: comparison drawn from Tables 3 and 4 (kinetic analysis and affinity test).
Assay [2] has the same target. Kind of assay: affinity test (RU read-out; instrument not named).
Assay [3] has the same target. Kind of assay: kinetic analysis, 1:1 binding fit (RU read-out; instrument not named).

B1: mAb 14G12-5 (antibody, V domains shown)
VH: EVQLVESGGGLVKPGGSLKLSCAASGFAFNAYDMSWVRQTPEKRLEWVAYISSSGDYTYYPDTVKGRFTVSRDNAKSTLYLHMGSLKSEDTAMYYCAVYYHYDEGLDYWGQGTALTVSS
VL: QIVLIQSPAIMSASPGEKVTMTCSASSSVNYMHWYQQKSGTSPKRWIYDTSKLASGVPARFSGSGSGTSYSLTISSMEAEDAATYYCQQWSSNPPTFGGGTKLEIKR
For the molecule B1, the fold binding capacity against canine FDP in assay [1] stood at 10 fold. Moreover, in assay [2], the Kd came to 157 nM. In addition, in assay [3], the Kd was determined as 16.5 nM, the koff worked out at 0.00225 s⁻¹ and the kon was found to be 136000 M⁻¹ s⁻¹.

In general, Kd refers to the equilibrium constant for the complex coming apart. For orientation: koff means the rate constant with which the complex falls apart. The term kon denotes the rate constant with which the complex forms.
